What was measured:
[1] = target: recombinant streptococcal enolase (Sen) from GAS strain AP53 (Streptococcus pyogenes (GAS) strain AP53); experiment: ELISA; Sen coated on high protein binding 96-well plates overnight at 4°C; hPg added at 25°C for 1 h; detected with HRP-conjugated monoclonal mouse-anti hPg; saturation curve
[2] = target: recombinant mature PAM (Asn1-Gln351, plus (His)6) (Streptococcus pyogenes (GAS) strain AP53) (UniProt P49054)
[3] = target: recombinant streptococcal enolase (Sen) from GAS strain AP53 (Streptococcus pyogenes (GAS) strain AP53); experiment: SPR; Sen amine-coupled to a CM-5 chip (~1,000 RU); hPg as analyte, 9 to 2,400 nM; 25°C, HBS-EP+ (10 mM Na-Hepes/150 mM NaCl/3 mM EDTA/0.05% polysorbate 20, pH 7.4); equilibrium (affinity) fit
[4] = target: recombinant streptococcal enolase (Sen) from GAS strain AP53 (Streptococcus pyogenes (GAS) strain AP53)
[5] = target: plasminogen (Homo sapiens) (UniProt P00747); details: cited from earlier work
[6] = target: recombinant streptococcal enolase (Sen) from GAS strain AP53 (Streptococcus pyogenes (GAS) strain AP53); experiment: SEC-MALS; each protein 100 μl of 1 mg/ml on a WTC-030S5 column, PBS, pH 7.4, flow rate 0.5 ml/min
[7] = target: recombinant streptococcal enolase (Sen) from GAS strain AP53 (Streptococcus pyogenes (GAS) strain AP53); experiment: AUC; sedimentation velocity, 20°C, 50 mM Na phosphate/0.1 M NaCl, pH 7.4; 30,000 rpm for Sen, 35,000 rpm for hEno; three protein dilutions; no concentration-dependent dissociation down to at least 0.1 mg/ml

Sequence of recombinant streptococcal enolase (Sen) from GAS strain AP53 (Streptococcus pyogenes (GAS) strain AP53) (A2RFE3 whole entry): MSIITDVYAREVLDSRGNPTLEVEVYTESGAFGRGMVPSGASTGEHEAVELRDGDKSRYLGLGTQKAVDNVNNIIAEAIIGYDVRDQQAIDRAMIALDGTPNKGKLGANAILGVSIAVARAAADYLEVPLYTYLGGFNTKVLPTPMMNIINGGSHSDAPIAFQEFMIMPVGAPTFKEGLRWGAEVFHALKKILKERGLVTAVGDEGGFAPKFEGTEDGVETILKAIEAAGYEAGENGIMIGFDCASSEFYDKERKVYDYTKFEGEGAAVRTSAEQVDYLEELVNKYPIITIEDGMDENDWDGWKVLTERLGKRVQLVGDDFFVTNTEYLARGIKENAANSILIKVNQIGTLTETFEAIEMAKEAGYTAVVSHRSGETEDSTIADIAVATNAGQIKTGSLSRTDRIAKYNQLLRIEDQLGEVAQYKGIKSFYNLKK
Sequence of UniProt P00747 (P00747 20-810): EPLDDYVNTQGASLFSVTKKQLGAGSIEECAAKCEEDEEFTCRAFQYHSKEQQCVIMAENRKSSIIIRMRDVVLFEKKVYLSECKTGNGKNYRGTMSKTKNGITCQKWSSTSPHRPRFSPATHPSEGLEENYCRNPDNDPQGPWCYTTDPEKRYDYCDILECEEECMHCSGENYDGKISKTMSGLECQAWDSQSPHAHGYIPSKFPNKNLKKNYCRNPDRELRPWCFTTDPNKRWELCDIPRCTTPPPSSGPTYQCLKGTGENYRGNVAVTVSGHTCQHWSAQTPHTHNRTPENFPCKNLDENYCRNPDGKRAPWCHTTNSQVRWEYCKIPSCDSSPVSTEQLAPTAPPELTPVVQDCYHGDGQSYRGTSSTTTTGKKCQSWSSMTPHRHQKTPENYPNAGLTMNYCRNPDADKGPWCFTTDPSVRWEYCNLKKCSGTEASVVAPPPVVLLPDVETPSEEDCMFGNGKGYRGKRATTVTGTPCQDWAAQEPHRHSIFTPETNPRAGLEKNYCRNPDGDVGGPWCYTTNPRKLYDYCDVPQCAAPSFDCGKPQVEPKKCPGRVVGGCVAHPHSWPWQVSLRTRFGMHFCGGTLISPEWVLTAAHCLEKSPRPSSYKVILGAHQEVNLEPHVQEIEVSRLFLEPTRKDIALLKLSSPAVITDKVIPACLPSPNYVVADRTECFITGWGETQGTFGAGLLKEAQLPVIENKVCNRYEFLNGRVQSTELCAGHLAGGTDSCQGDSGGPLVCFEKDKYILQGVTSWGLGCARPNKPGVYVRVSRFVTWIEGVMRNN

recombinant human plasminogen (hPg) (natural protein)
C50 [1]: 125 nM | rate of activation of hPg by tPA on PAM-coated plates against free hPg, hydrolysis of S2251 [2]: 2.5 fold | C50 [3]: 111 nM | rate of activation of hPg by tPA with Sen bound to DOPG vesicles against vesicles without Sen, hydrolysis of S2251 [4]: 6 to 8 fold

plasminogen-binding M-protein (PAM) (from UniProt P49054)
Kd [5]: 1 nM

recombinant streptococcal enolase (Sen) from GAS strain AP53 (enzyme)
stoichiometry N [6]: 8 | stoichiometry N [7]: 8
